The source of these data is patent US20100211325A1.

For experiment [1], the target named is Laminin 511/521 (LM511/521) (UniProt O15230). As to the kind of experiment: SPR (Biacore X), Lu gpFc captured on protein A chip (40 RU), 100 µl injection of 10 nM LM511/521, total change in RU. Background: SPR reads the build-up and loss of mass on a sensor chip optically.
The target is the same in experiment [2]. The experiment in a line: ELISA of FIG. 6d, 0.05 nM Lu protein, LM511/521 added, anti-laminin detection. A general note: In an ELISA, binding on a coated surface is turned into a signal by an enzyme label.
For experiment [3] the target is unchanged. As to the kind of experiment: ELISA of FIG. 3c, 0.05 nM Lu gpFc captured by anti-Fc, LM511/521 added, anti-laminin detection.
For experiment [4] the target is unchanged.
Assay: not given

Experiment [5] shares this target. The experiment in a line: ELISA, 0.05 nM Lu gpFc captured by anti-human Fc, 5 nM LM511/521, anti-laminin detection.
Experiment [6] has the same target. As to the kind of experiment: SPR (Biacore) of FIG. 6e, 100 µl injection of 10 nM LM511/521 at 30 µl/min.
For experiment [7] the target is unchanged. The experiment in a line: electron tomography (Protein Tomography) of an equimolar mixture of Lu gpFc and LM511/521.
For experiment [8] the target is unchanged. The experiment in a line: cell-based or functional assay.
For experiment [9] the target is unchanged. As to the kind of experiment: ELISA, Lu protein captured, 5 nM LM511/521, against native Lu gp or D1+2+3+4.
For experiment [10] the target is unchanged. The experiment in a line: SPR (Biacore), Lu protein captured, 10 nM LM511/521, against native Lu gp or D1+2+3+4.

Numbering of substitutions follows the chain as printed. Names and notes keep the numbering of the source.

B1: Native Lu gpFc fusion protein (five extracellular domains of human Lutheran glycoprotein fused to Fc) (Fc fusion, not shown: a dimerising Fc or GST)
chain: EVRLSVPPLVEVMRGKSVILDCTPTGTHDHYMLEWFLTDRSGARPRLASAEMQGSELQVTMHDTRGRSPPYQLDSQGRLVLAEAQVGDERDYVCVVRAGAAGTAEATARLNVFAKPEATEVSPNKGTLSVMEDSAQEIATCNSRNGNPAPKITWYRNGQRLEVPVEMNPEGYMTSRTVREASGLLSLTSTLYLRLRKDDRDASFHCAAHYSLPEGRHGRLDSPTFHLTLHYPTEHVQFWVGSPSTPAGWVREGDTVQLLCRGDGSPSPEYTLFRLQDEQEEVLNVNLEGNLTLEGVTRGQSGTYGCRVEDYDAADDVQLSKTLELRVAYLDPLELSEGKVLSLPLNSSAVVNCSVHGLPTPALRWTKDSTPLGDGPMLSLSSITFDSNGTYVCEASLPTVPVLSRTQNFTLLVQGSPELKTAEIEPKADGSWREGDEVTLICSARGHPDPKLSWSQLGGSPAEPIPGRQGWVSSSLTLKVTSALSRDGISCEASNPHGNKRHVFHFGTVSPQTSQA
As to B1, the Biacore Δ RUs in experiment [1] came to 115 RU. Also, in [2], the OD450 amounted to 0.99 OD450. In experiment [3], this molecule displayed an OD450 of 0.95 OD450. For the same molecule, in experiment [4], the Kd amounted to 7.9 nM, the koff is 0.0126 s⁻¹ and the kon is 1.6e+06 M⁻¹ s⁻¹. In addition, the ELISA % of native Lu gpFc in [5] came out at 100%. For the same molecule, in experiment [6], the total change in RU was found to be 129 RU. In experiment [7], the % of LM511/521 molecules bound to Lu gpFc was 50 to 60%.

B2: Lu gpFc E180A (Fc fusion, not shown: a dimerising Fc or GST)
chain: B1 chain with E180A
B2: the Biacore Δ RUs in experiment [1] was determined as 78.3 RU. The molecule further had an ELISA % of native Lu gpFc in experiment [5] of 104%.

B3: Lu gpFc E132A/D133A (Fc fusion, not shown: a dimerising Fc or GST)
chain: B1 chain with E132A, D133A
B3: the Biacore Δ RUs in [1] was 57.3 RU. Also, in experiment [5], the ELISA % of native Lu gpFc came to 69.4%.

B4: Human Lutheran glycoprotein on cells (K562 transfectant expressing Lu gp; late stage erythroblasts) (receptor)
chain: EVRLSVPPLVEVMRGKSVILDCTPTGTHDHYMLEWFLTDRSGARPRLASAEMQGSELQVTMHDTRGRSPPYQLDSQGRLVLAEAQVGDERDYVCVVRAGAAGTAEATARLNVFAKPEATEVSPNKGTLSVMEDSAQEIATCNSRNGNPAPKITWYRNGQRLEVPVEMNPEGYMTSRTVREASGLLSLTSTLYLRLRKDDRDASFHCAAHYSLPEGRHGRLDSPTFHLTLHYPTEHVQFWVGSPSTPAGWVREGDTVQLLCRGDGSPSPEYTLFRLQDEQEEVLNVNLEGNLTLEGVTRGQSGTYGCRVEDYDAADDVQLSKTLELRVAYLDPLELSEGKVLSLPLNSSAVVNCSVHGLPTPALRWTKDSTPLGDGPMLSLSSITFDSNGTYVCEASLPTVPVLSRTQNFTLLVQGSPELKTAEIEPKADGSWREGDEVTLICSARGHPDPKLSWSQLGGSPAEPIPGRQGWVSSSLTLKVTSALSRDGISCEASNPHGNKRHVFHFGTVSPQTSQAGVAVMAVAVSVGLLLLVVAVFYCVRRKGGPCCRQRREKGAPPPGEPGLSHSGSEQPEQTGLLMGGASGGARGGSGGFGDEC
B4 showed a cell adhesion assay: % of cells bound to coated laminin in experiment [8] of 70 to 85%.

B5: Lu gpFc domain deletion protein D1+2+3b (domains 1, 2 and 3, ending L354EL-…-Fc) (Fc fusion, not shown: a dimerising Fc or GST)
chain: EVRLSVPPLVEVMRGKSVILDCTPTGTHDHYMLEWFLTDRSGARPRLASAEMQGSELQVTMHDTRGRSPPYQLDSQGRLVLAEAQVGDERDYVCVVRAGAAGTAEATARLNVFAKPEATEVSPNKGTLSVMEDSAQEIATCNSRNGNPAPKITWYRNGQRLEVPVEMNPEGYMTSRTVREASGLLSLTSTLYLRLRKDDRDASFHCAAHYSLPEGRHGRLDSPTFHLTLHYPTEHVQFWVGSPSTPAGWVREGDTVQLLCRGDGSPSPEYTLFRLQDEQEEVLNVNLEGNLTLEGVTRGQSGTYGCRVEDYDAADDVQLSKTLELRVAYLNSPQTSQA
With B5, in experiment [9], the % of the binding of native Lu gp (ELISA) worked out at 68%. Besides, the % of the binding of native Lu gp (Biacore) in experiment [10] is 42%.

One may read the Kd as a measure of binding affinity in units of concentration. A high value points to weaker binding. The koff is a measure of how fast the partners let go of each other. What is called kon is the second-order rate constant of association. The low end stands for slower complex formation, the high end for faster complex formation.
